The values below come from patent US20150024411A1.

Test [1] concerns the target human CD4 on CD4+ cells of PBMC or whole blood (human) (UniProt P01730). Put plainly: Pipette tip cell affinity chromatography on Strep-Tactin agarose functionalized with the m13B8.2 Fab, human PBMC; starting sample 52,3% CD4+ (a) [b].
Test [2] has the same target. Put plainly: Pipette tip cell affinity chromatography on Strep-Tactin agarose functionalized with the m13B8.2 Fab, human whole blood; starting sample 1,20% CD4+ (a) [c].
For test [3] the target is unchanged. As to the kind of experiment: Pipette tip cell affinity chromatography on Strep-Tactin agarose functionalized with the m13B8.2 Fab, human whole blood; starting sample 1,20% CD4+ (a) [b].
Test [4] has the same target. As to the kind of experiment: Pipette tip cell affinity chromatography on Strep-Tactin agarose functionalized with the m13B8.2 Fab, human PBMC; starting sample 52,3% CD4+ (a) [c].
Test [5] has as its target human CD8 on CD8+ T cells of PBMC or whole blood (human) (UniProt P01732). As to the kind of experiment: cell affinity chromatography: Fab on Strep-Tactin Sephadex-50, human PBMC, flow cytometry of start and flow-through.
UniProt P01732, sequence (P01732 22-235): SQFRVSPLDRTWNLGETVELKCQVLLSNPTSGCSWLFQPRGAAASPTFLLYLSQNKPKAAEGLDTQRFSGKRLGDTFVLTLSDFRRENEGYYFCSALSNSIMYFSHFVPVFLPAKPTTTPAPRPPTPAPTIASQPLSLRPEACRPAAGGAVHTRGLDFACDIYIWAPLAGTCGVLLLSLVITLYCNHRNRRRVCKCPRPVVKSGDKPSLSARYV
The target is the same in test [6]. Put plainly: Cell affinity chromatography on Strep-Tactin agarose functionalized with the anti-CD8 Fab, human whole blood; starting sample 0,041% CD8+ (a) [b].
For test [7] the target is unchanged. As to the kind of experiment: cell affinity chromatography: PBMC pre-incubated with Fab, Superflow Strep-Tactin column, FACS of start and wash fractions.
The target is the same in test [8]. Put plainly: Flow cytometry of PBMC fractions from a Sephadex G50/Strep-Tactin column loaded with the CD8 Fab; the same marker reads 28 before selection (diagram A).
Test [9] shares this target. Put plainly: Cell affinity chromatography on Strep-Tactin agarose functionalized with the anti-CD8 Fab, human PBMC; starting sample 24,1% CD8+ (a) [b].
Test [10] has the same target. Put plainly: Cell affinity chromatography on Strep-Tactin agarose functionalized with the anti-CD8 Fab, human PBMC; starting sample 24,1% CD8+ (a) [c].
For test [11] the target is unchanged. As to the kind of experiment: Cell affinity chromatography on Strep-Tactin agarose functionalized with the anti-CD8 Fab, human whole blood; starting sample 0,041% CD8+ (a) [c].
The target in test [12] is murine CD4 on splenocytes (murine) (UniProt P06332). As to the kind of experiment: Pipette tip cell affinity chromatography on Strep-Tactin agarose functionalized with the GK1.5 Fab, murine splenocytes; starting sample 19,6% CD3+CD4+ (a) [b].
UniProt P06332, sequence (P06332 27-457): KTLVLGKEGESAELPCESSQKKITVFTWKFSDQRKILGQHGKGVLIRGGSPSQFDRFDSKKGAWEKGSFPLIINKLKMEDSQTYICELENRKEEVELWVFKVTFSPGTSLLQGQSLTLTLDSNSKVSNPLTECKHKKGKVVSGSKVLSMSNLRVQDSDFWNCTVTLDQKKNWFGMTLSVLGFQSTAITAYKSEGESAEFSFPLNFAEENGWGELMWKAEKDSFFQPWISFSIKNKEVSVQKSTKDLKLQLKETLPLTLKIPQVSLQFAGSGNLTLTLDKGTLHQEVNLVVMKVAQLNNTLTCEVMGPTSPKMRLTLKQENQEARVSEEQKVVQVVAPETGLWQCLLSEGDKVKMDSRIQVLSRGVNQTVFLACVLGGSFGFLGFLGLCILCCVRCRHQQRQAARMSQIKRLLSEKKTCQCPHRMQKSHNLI
Test [13] has the same target. As to the kind of experiment: Pipette tip cell affinity chromatography on Strep-Tactin agarose functionalized with the GK1.5 Fab, murine splenocytes; starting sample 21,7% CD4+ (a) [c].
For test [14] the target is unchanged. Put plainly: Pipette tip cell affinity chromatography on Strep-Tactin agarose functionalized with the GK1.5 Fab, murine splenocytes; starting sample 21,7% CD4+ (a) [b].
Test [15] shares this target. Put plainly: Pipette tip cell affinity chromatography on Strep-Tactin agarose functionalized with the GK1.5 Fab, murine splenocytes; starting sample 19,6% CD3+CD4+ (a) [c].

“mutant Fab fragment m13B8.2 (variable domains of the CD4 binding murine antibody 13B8.2 with light chain His91Ala and heavy chain Arg53Ala, human CH1 gamma1 and human kappa constant domains, two streptavidin binding modules at the C-terminus of the heavy chain)”: the % CD4+ cells in the CD4-negative wash fraction in test [1] was determined as 5.88%; in test [3], 0.144%. Further, the % CD4+ cells in the biotin eluate fraction was found to be 70.4% in test [2] and 99.4% in test [4].

As to “CD8 binding Fab fragment, heavy chain carboxy-terminally fused with a sequential arrangement of two streptavidin binding modules (IBA GmbH, catalogue number 6-8003)”, in [5], the percent of PBMC that are CD8+ T-cells bound to the column was determined as 12.1% and the percent of the CD8+ T-cells bound to the column worked out at 66%. Further, the % CD8+ cells in the CD8-negative wash fraction in [6] amounted to 0.005%. In test [7], this substance had a percent of CD8+ cells retarded on the column of 77.8%. In test [8], this substance had a % cells in the CD8-positive marker of the CD8 histogram, 1. elution fraction immediately with D-Biotin of 67%; a % cells in the CD8-positive marker of the CD8 histogram, 2. elution fraction after D-Biotin and subsequent washing of 76%; a % cells in the CD8-positive marker of the CD8 histogram, wash through fraction of 10%. The % CD8+ cells in the CD8-negative wash fraction in [9] amounted to 4.83%. In test [10], the % CD8+ cells in the biotin eluate fraction was determined as 88.2%. In addition, the % CD8+ cells in the biotin eluate fraction in test [11] worked out at 79.8%.

“anti-CD4 Fab fragment with the wild-type variable domains of the CD4 binding antibody GK1.5 and two streptavidin binding modules at the C-terminus of the heavy chain” had a % CD3+CD4+ cells in the CD4-negative wash fraction in test [12] of 0.977%. For the same substance, in test [13], the % CD4+ cells in the biotin eluate fraction is 84.7%. The % CD4+ cells in the CD4-negative wash fraction in [14] stood at 2.78%. In [15], this substance had a % CD3+CD4+ cells in the biotin eluate fraction of 80.8%.
